Results taken from US20220064321A1 (published 2022).

B1: anti-CD20 antibody MIL62 (antibody, human IgG1, kappa)
light: DIVMTQTPLSLPVTPGEPASISCRSSKSLLHSNGITYLYWYLQKPGQSPQLLIYQMSNLVSGVPDRFSGSGSGTDFTLKISRVEAEDVGVYYCAQNLELPYTFGGGTKVEIKRTVAAPSVFIFPPSDEQLKSGTASVVCLLNNFYPREAKVQWKVDNALQSGNSQESVTEQDSKDSTYSLSSTLTLSKADYEKHKVYACEVTHQGLSSPVTKSFNRGEC
heavy: not shown
modifications: N-glycans on the Fc region, not bisected by N-acetylglucosamine; core-fucosylated glycans 0.43% in the example batch (made in CHOK1-AF cells, Slc35c1 knocked out)
notes: In the FcγRIIIa ELISA the IgG was pre-complexed with goat F(ab')2 anti-human-κ antibody at 1:2 (w/w); also called MIL62 antibody; humanized anti-CD20 antibody of the present invention
B2: GAZYVA® (obinutuzumab) (antibody, human IgG1, kappa)
light: B1 light
heavy: not shown
modifications: N-glycans on the Fc region, more than 76% bisected by GlcNAc; core-fucosylated glycans 48.03% in the example batch
notes: In the FcγRIIIa ELISA the IgG was pre-complexed with goat F(ab')2 anti-human-κ antibody; also called afutuzumab; GA101

Key:
[1] = biological target: T1, FcγRIIIa(V158) (Sino Biological Inc, 10389-H08C1) (UniProt P08637 17-208); test: binding ELISA; His-tagged FcγRIIIa captured by anti-His antibody, IgG pre-complexed with goat F(ab')2 anti-human-κ (value in the text differs from Table 4)
T1 construct: also called Fc gamma receptor IIIa
Procedure: (§1) High protein binding Costar 96-well plates were coated with anti-His antibody (Genscript, A00186) (1 μg/ml, 100 μl/well) in a coating buffer (0.05 M sodium carbonate buffer, pH 9.6) overnight at 4° C. The wells were washed twice with PBS/0.05% Tween 20 (pH 7.4). The plates were blocked with 5% Non-Fat Milk Powder/PBS (pH 7.4) for 1.5 hours at 37′C. Plates were washed and FcγRIIIa (Sino Biological Inc, 10389-H08C1) (1 μg/ml, 100 μl/well) in PBS/0.05% Tween 20, pH 7.4 (assay buffer) was added to the plates. Antibodies were pre-incubated with goat F(ab′)₂anti-human-κ antibody (Sigma) at a 1:2 (w/w) ratio in assay buffer for 1 h to form complex to increase binding avidity. […] After a 2 h incubation, plates were washed and bound IgG was detected by adding horseradish peroxidase (HRP)) labeled goat F(ab′)2 anti-human IgG F(ab′)2 (Sigma). After a final 1 hour incubation, plates were washed and the substrate 3,3′,5,5′-tetramethyl benzidine (TMB) (InnoReagents) was added. The reaction was stopped by adding 1 M phosphoric acid, and the OD was measured at 450 nm using a microplate reader Spectra MAX I3 (Molecular Devices).

[2] = biological target: T1, FcγRIIIa(V158) (Sino Biological Inc, …); test: binding ELISA; His-tagged FcγRIIIa captured by anti-His antibody, IgG pre-complexed with goat F(ab')2 anti-human-κ, HRP anti-human F(ab')2 detection
Procedure: as §1

[3] = biological target: CD16a on effector cells NK92MI-CD16a (UniProt P08637 17-254, limits assumed); test: cell-based or functional assay
CD16a on effector cells NK92MI-CD16a, sequence (P08637 17-254 limits assumed): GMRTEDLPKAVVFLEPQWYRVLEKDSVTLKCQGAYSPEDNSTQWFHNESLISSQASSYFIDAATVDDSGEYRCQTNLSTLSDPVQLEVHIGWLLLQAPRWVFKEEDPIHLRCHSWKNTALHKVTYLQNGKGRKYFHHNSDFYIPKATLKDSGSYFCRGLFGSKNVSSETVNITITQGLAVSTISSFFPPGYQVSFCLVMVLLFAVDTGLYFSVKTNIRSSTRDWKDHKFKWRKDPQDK

T1 sequence (P08637 17-208 F176V limits assumed): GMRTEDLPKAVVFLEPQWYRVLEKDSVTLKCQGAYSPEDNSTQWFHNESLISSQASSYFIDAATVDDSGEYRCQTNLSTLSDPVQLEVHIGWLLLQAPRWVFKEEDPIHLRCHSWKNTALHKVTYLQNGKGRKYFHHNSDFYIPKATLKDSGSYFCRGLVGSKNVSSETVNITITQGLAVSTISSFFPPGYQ

| EC50 [1] [ng/mL] | EC50 [2] [ng/mL] | ADCC Target cell: Daudi, EC50 [3] [ng/mL] | ADCC Target cell: Raji, EC50 [3] [ng/mL] | Binder |
| --- | --- | --- | --- | --- |
| 55 | 52 | 0.0488 | 0.00738 | B1 |
| – | 113 | 0.111 | 0.0143 | B2 |
